Reference: patent US20240252673A1, “ANTI-TISSUE FACTOR ANTIBODY-DRUG CONJUGATES AND THEIR USE IN THE TREATMENT OF CANCER” (priority 2017, published 2024)

How the values were obtained:
Assay type in all cases: in vivo, human
[1] = test system: locally advanced and/or metastatic cancer of various types including cervical cancer; assay: Phase I/II dose-escalation study: anti-tumor activity per RECIST v1.1 (CT scans every six weeks)
Method: (§1) A first-in-human phase I/II dose-escalating study following a 3+3 dose-escalation design was conducted in order to test the safety of tisotumab vedotin in 27 subjects with locally advanced and/or metastatic cancer of various types including cervical cancer (FIG. 2). Tisotumab vedotin was administered by intravenous infusion at doses ranging from 0.3 mg/kg to 2.2 mg/kg on day 1 of a 21-day cycle for four cycles (i.e., each treatment cycle was 3 weeks). Patients with stable disease (SD) or better at the end of four cycles had the option to continue treatment with tisotumab vedotin for eight additional cycles (FIG. 2). Tumor evaluations were performed by CT scans every six weeks. In order to qualify for SD, results of the CT scan scheduled for week six needed to be SD or better. Two CT scans were performed outside the per-protocol defined window.
(§2) A primary objective of the study was to assess the safety and tolerability in a mixed population of patients with specified solid tumors. Adverse event (AE) severity was graded according to Common Terminology Criteria for Adverse Events (CTCAE) version 4.03. Secondary objectives of the study included determining the pharmacokinetic (PK) profile of tisotumab vedotin and preliminary evaluation of anti-tumor activity as assessed according to Response Evaluation Criteria in Solid Tumors [RECIST] version 1.1. Dose-limiting toxicities (DLTs) were determined during the first cycle and were defined as grade≥3 events possibly related to tisotumab vedotin. […] Tumor biopsies were required at baseline for TF expression which was assessed by immunohistochemistry utilizing tisotumab. TF staining intensity was determined using the H-scoring system.

[2] = test system: subjects with locally advanced and/or metastatic cancer of various types; assay: Phase I/II dose-escalation study: safety and tolerability, adverse events (CTCAE v4.03) occurring up to 30 days after treatment
Method: as §1
Lyophilized vials containing 40 mg of tisotumab vedotin were stored in a refrigerator at 2° C. to 8° C. Tisotumab vedotin was reconstituted in 4 ml of water leading to a reconstituted solution comprising 10 mg/mL tisotumab vedotin, 30 mM histidine, 88 mM sucrose, and 165 mM D-mannitol. […] The reconstituted tisotumab vedotin was diluted into a 0.9% NaCl 100 mL infusion bag according to the dose calculated for the patient. Intravenous infusion was completed within 24 hours after the tisotumab vedotin vial had been reconstituted. A 0.2 μm in-line filter was used for the intravenous infusion. The entire 100 mL volume from the prepared infusion bag was administered. No dead volume was provided.
as §2
Inclusion criteria for eligible subjects included: patients with relapsed, advanced, and/or metastatic cancer who have failed available standard therapy; and measurable disease.
Exclusion criteria included known past or current coagulation defects; ongoing major bleeding; and presence of CTCAE grade≥2 peripheral neuropathy.

[3] = Phase I/II dose-escalation study: plasma pharmacokinetics; settings: cycle 1, plasma, geometric mean (% CV)
Method: as §1, §2
The geometric means (% CV) of the time to reach Cmax (Tmax)(hr), maximum concentration (Cmax)(ng/mL), and area under the concentration time curve (AUC)0-t (hr*ng/mL) was measured for the pharmacokinetics (PK) portion of the study (Table 3). Low levels of unconjugated MMAE were measured in systemic circulation (FIG. 4).

[4] = Patient 2, cervical cancer, 1.2 mg/kg

Substance: tisotumab vedotin
- Confirmed Response per RECIST v1.1: Complete response (CR) ([1]; 0.3 mg/kg (n = 3)): 0 n
- Confirmed Response per RECIST v1.1: Not evaluable ([1]; 0.3 mg/kg (n = 3)): 0 n
- Confirmed Response per RECIST v1.1: Partial response (PR) ([1]; 0.3 mg/kg (n = 3)): 0 n
- Confirmed Response per RECIST v1.1: Complete response (CR) ([1]; 0.6 mg/kg (n = 3)): 0 n
- Confirmed Response per RECIST v1.1: Partial response (PR) ([1]; 0.6 mg/kg (n = 3)): 0 n
- Confirmed Response per RECIST v1.1: Complete response (CR) ([1]; 0.9 mg/kg (n = 3)): 0 n
- Confirmed Response per RECIST v1.1: Not evaluable ([1]; 0.9 mg/kg (n = 3)): 0 n
- Confirmed Response per RECIST v1.1: Partial response (PR) ([1]; 0.9 mg/kg (n = 3)): 0 n
- Confirmed Response per RECIST v1.1: Complete response (CR) ([1]; 1.2 mg/kg (n = 3)): 0 n
- Confirmed Response per RECIST v1.1: Not evaluable ([1]; 1.2 mg/kg (n = 3)): 0 n
- Confirmed Response per RECIST v1.1: Complete response (CR) ([1]; 1.5 mg/kg (n = 3)): 0 n
- Confirmed Response per RECIST v1.1: Not evaluable ([1]; 1.5 mg/kg (n = 3)): 0 n
- Confirmed Response per RECIST v1.1: Partial response (PR) ([1]; 1.5 mg/kg (n = 3)): 0 n
- Confirmed Response per RECIST v1.1: Complete response (CR) ([1]; 1.8 mg/kg (n = 3)): 0 n
- Confirmed Response per RECIST v1.1: Not evaluable ([1]; 1.8 mg/kg (n = 3)): 0 n
- Confirmed Response per RECIST v1.1: Partial response (PR) ([1]; 1.8 mg/kg (n = 3)): 0 n
- Confirmed Response per RECIST v1.1: Progressive disease (PD) ([1]; 1.8 mg/kg (n = 3)): 0 n
- Confirmed Response per RECIST v1.1: Complete response (CR) ([1]; 2.0 mg/kg (n = 3)): 0 n
- Confirmed Response per RECIST v1.1: Not evaluable ([1]; 2.0 mg/kg (n = 3)): 0 n
- Confirmed Response per RECIST v1.1: Partial response (PR) ([1]; 2.0 mg/kg (n = 3)): 0 n
- Confirmed Response per RECIST v1.1: Complete response (CR) ([1]; 2.2 mg/kg (n = 6)): 0 n
- Confirmed Response per RECIST v1.1: Not evaluable ([1]; 2.2 mg/kg (n = 6)): 0 n
- Confirmed Response per RECIST v1.1: Partial response (PR) ([1]; 2.2 mg/kg (n = 6)): 0 n
- reduction in tumor size relative to baseline ([1]; Patient 1, cervical cancer, 2.2 mg/kg): about 20%
- best response [1, 4]: confirmed PR
- continued benefit, total duration [1, 4]: 15 months
- reduction in tumor size relative to baseline (target lesion) ([1]; Patient 2, stage 4 cervical cancer, 3 prior lines, 1.2 mg/kg): about 51%
- Confirmed Response per RECIST v1.1: Complete response (CR) ([1]; all doses (n = 27)): 0 n
- disease control rate (DCR; PR+SD) ([1]; all doses, 26 patients evaluated): 46%
- patients withdrew from treatment due to disease progression ([1]; all doses, 27 patients): 67%
- disease control rate (DCR; PR+SD), patients ([1]; all doses, out of 26 patients): 12 patients
- AE leading to discontinuation ([2]; 0.3 mg/kg (n = 3)): 0 n
- AE leading to discontinuation ([2]; 0.6 mg/kg (n = 3)): 0 n
- AE leading to discontinuation ([2]; 0.9 mg/kg (n = 3)): 0 n
- AE with outcome of death ([2]; 0.9 mg/kg (n = 3)): 0 n
- Serious AE ([2]; 0.9 mg/kg (n = 3)): 0 n
- AE leading to discontinuation ([2]; 1.2 mg/kg (n = 3)): 0 n
- AE with outcome of death ([2]; 1.2 mg/kg (n = 3)): 0 n
- AE leading to discontinuation ([2]; 1.5 mg/kg (n = 3)): 0 n
- AE with outcome of death ([2]; 1.5 mg/kg (n = 3)): 0 n
- AE with outcome of death ([2]; 1.8 mg/kg (n = 3)): 0 n
- AE leading to discontinuation ([2]; 2.0 mg/kg (n = 3)): 0 n
- AE with outcome of death ([2]; 2.0 mg/kg (n = 3)): 0 n
- AE with outcome of death ([2]; 2.2 mg/kg (n = 6)): 0 n
- DLTs (diabetes mellitus type 2, mucositis, neutropenic fever, all grade 3) ([2]; 2.2 mg/kg dose cohort, in three patients, first cycle): Three
- Maximum tolerated dose (MTD) ([2]; IV, day 1 of 21-day cycle): 2.0 mg/kg
- tolerability [2, 4]: well tolerated and no severe AEs were reported
- discontinued due to AE: grade 1 pneumonitis ([2]; all 27 patients): 1 n
- discontinued due to AE: grade 2 peripheral swelling and grade 3 pain in extremity ([2]; all 27 patients): one
- discontinued due to AE: grade 3 Guillain-Barre syndrome ([2]; all 27 patients): 1 n
- discontinued due to AE: grade 3 abdominal pain ([2]; all 27 patients): 2 n
- discontinued due to AE: grade 3 diabetes mellitus ([2]; all 27 patients): 1 n
- discontinued due to AE: grade 3 fatigue ([2]; all 27 patients): 1 n
- grade 4 events ([2]; all 27 patients): no grade 4 events
- grade≥3 treatment-related AE: abdominal pain ([2]; all 27 patients): 3 n
- grade≥3 treatment-related AE: anemia ([2]; all 27 patients): 4 n
- grade≥3 treatment-related AE: fatigue ([2]; all 27 patients): 4 n
- grade≥3 treatment-related AE: hyponatraemia ([2]; all 27 patients): 3 n
- patients experienced grade≥3 treatment-related AEs ([2]; all 27 patients): 19 patients
- treatment-related AE: anaemia ([2]; all 27 patients): 41%
- treatment-related AE: epitaxis ([2]; all 27 patients): 48%
- treatment-related AE: fatigue ([2]; all 27 patients): 48%
- changes in coagulation parameters ([2]; all doses): No significant changes
- patients withdrew from treatment due to AEs ([2]; all doses, 27 patients): 15%
- patients withdrew from treatment due to death ([2]; all doses, 27 patients): 4%
- patients withdrew from treatment due to dose-limiting toxicities (DLTs) ([2]; all doses, 27 patients): 4%
- mean prothrombin time ([2]; by the end of the study (n=17), baseline 11.5 seconds (n=18)): 11.7 s
- mean activated partial thromboplastin time ([2]; by the end of the study (n=23), baseline 28.2 seconds (n=25)): 27.1 s
- AUC0-t ([3]; 0.3 mg/kg, N 3): 59216.8 (3%) hr * ng/ml
- Cmax ([3]; 0.3 mg/kg, N 3): 4782.7 (12%) ng/ml
- Tmax ([3]; 0.3 mg/kg, N 3): 1.5 (73%) hr
- AUC0-t ([3]; 0.6 mg/kg, N 3): 368432.7 (8%) hr * ng/ml
- Cmax ([3]; 0.6 mg/kg, N 3): 12195.3 (10%) ng/ml
- Tmax ([3]; 0.6 mg/kg, N 3): 1.2 (13%) hr
- AUC0-t ([3]; 0.9 mg/kg, N 3): 601926.2 (17%) hr * ng/ml
- Cmax ([3]; 0.9 mg/kg, N 3): 19811.6 (17%) ng/ml
- Tmax ([3]; 0.9 mg/kg, N 3): 1.3 (12%) hr
- AUC0-t ([3]; 1.2 mg/kg, N 3): 1084672.7 (9%) hr * ng/ml
- Cmax ([3]; 1.2 mg/kg, N 3): 34673.1 (19%) ng/ml
- Tmax ([3]; 1.2 mg/kg, N 3): 1.3 (12%) hr
- AUC0-t ([3]; 1.5 mg/kg, N 3): 794988.4 (19%) hr * ng/ml
- Cmax ([3]; 1.5 mg/kg, N 3): 23115.6 (21%) ng/ml
- Tmax ([3]; 1.5 mg/kg, N 3): 1.1 (9.6%) hr
- AUC0-t ([3]; 1.8 mg/kg, N 3): 1504823.8 (50%) hr * ng/ml
- Cmax ([3]; 1.8 mg/kg, N 3): 35416.3 (39%) ng/ml
- Tmax ([3]; 1.8 mg/kg, N 3): 1.2 (14%) hr
- AUC0-t ([3]; 2.0 mg/kg, N 3): 1256379.7 (33%) hr * ng/ml
- Cmax ([3]; 2.0 mg/kg, N 3): 32296.1 (22%) ng/ml
- Tmax ([3]; 2.0 mg/kg, N 3): 1.2 (8%) hr
- AUC0-t ([3]; 2.2 mg/kg, N 6): 2037070.5 (34%) hr * ng/ml
- Cmax ([3]; 2.2 mg/kg, N 6): 55530.3 (10%) ng/ml
- Tmax ([3]; 2.2 mg/kg, N 6): 1.1 (13%) hr
